# In publication PMC6908751 (Cell host & microbe, 2019):
# Biological target: Sh2 N9 NA ectodomain plus stalk with His6-tag (tetramer) (influenza A virus A/Shanghai/02/2013 …)
# Assay: cryo-EM structure
Binder,stoichiometry N,binding result
"human anti-N9 antibody NA-73 Fab (Fab, V domains shown) VH: QVQLEESGPGLVKPSETLSLTCTVSGYTISSGYYWGWIRQPPGKGLEWIGCNNHRGSSYYNPSLKSRVIISVDTTKNKFSLKLSSVTAADTAVYYCARDPSFWSSTSRTSPYYYGMDVWGQGTLVTVSS VL: not shown",1 Fab per NA protomer,–
"human anti-N9 antibody NA-80 Fab (Fab, V domains shown) VH: QVQLVQSGAEVKRPGASVKVSCKASGYTFISYGISWVRQAPGQGLEWMGWISAYNGNTNYAQNLQGRVTMTTDTSTSTAYMELRSLRSDDTAVYYCARVIPGTAVDYFDYWGQGTLVTVSS VL: DIVMTQSPSSLSASVGDRVTISCRASQSISSYLNWYQQKPGKAPKLLIYAASSLQSGVPSRFSGSASGTDFTLTISSLQPEDFATYYCQQSYSAPFTFGPGTKVDIE",1 Fab per NA protomer,–
"human anti-N9 antibody NA-63 Fab (Fab, V domains shown) VH: EVQLVESGGGLVQPGGSLRLSCAASGFTFSSYWMSWVRQAPGKGLDWVANIKQDGSEKYYVDSVKGRFTISRHNAKNSLYLQMNSLRAEDTAVYYCASSTAAEFFDYWGQGTLVTVSS VL: DIVMTQSPSSLSASVGDRVTITCRASQSISTYLNWYQQKPGKAPKLLIYAASSLQGGVPSRFSGSGSGTDFTLTISSLQPEDFATYYCQQSYSTPLYTFGQGTKLEIK",–,binds
"human anti-N9 antibody NA-22 Fab (Fab, V domains shown) VH: QVQLVESGGGVVQPGRSLRLSCAASGFTFNNYGMHWVRQAPGKGLEWVAVISYDGSNKYYADSVKGRFTISRDNSKNTLYLQMNSLRAEDTAVYYCAKDKRFITMILVGPFDYWGQGTLVTVSS VL: QSVLTQPASVSGSPGQSITISCTGTSSDVGGYNYVSWHQQHPGKAPKLMIYDVSNRPSGVSNRFSGSKSGNTASLTISGLQTEDEADYYCSSYTSSTTNVFGTGTKVTVL",4 Fabs per NA tetramer,–
